How the values were obtained:
RhoA-GTP = RhoA-GTP levels in oligodendrocyte lysates by western blotting; format: cell-based, rat; conditions: FIG. 9A
Description: A strong candidate signaling pathway that is implicated in the control of oligodendrocyte differentiation is the Rho family of GTPases. Rho GTPases regulate cellular morphology, and reduced RhoA-GTP amounts are required for oligodendrocyte differentiation. See Liang, X, et al., J. Neurosci. 24:7140-7149 (2004). To determine whether Sp35 signals through the RhoA pathway, RhoAGTP levels in cell lysates of oligodendrocytes treated with Sp35-Fc were compared with levels in the corresponding control via western blotting.

mature oligodendrocytes = test: Survival and MBP expression of mature oligodendrocyte cultures treated with Sp35-Fc; format: cell-based, rat; conditions: 10 μg/ml for 5 days
Protocol: Mature oligodendrocytes have a half-life in vitro of about 48 to 72 hours, with cells typically undergoing apoptosis after 72 hours. […] MBP expression was monitored as a marker for mature ologodendrocytes.

Caspase-3 = Caspase-3 activation in differentiated PC12 cells after NGF withdrawal (Caspase 3/7 Glo); format: cell-based
Protocol: (§1) PC12 cells (Neuroscreen) were differentiated in RPMI-1640 medium supplemented with 5% fetal bovine serum, 10% horse serum, 2 mM glutamine, 100 U/ml penicillin and […] streptomycin containing 200 ng/ml NGF for 7 days. For experiments, the culture media was replaced with NGF-free culture media containing Sp35-Fc, human IgG as a negative control (0.1-10 μM), or zVAD as a positive control (0.1 μM). 18 hours after NGF withdrawal, activated Caspase-3 was quantified using the Caspase 3/7 Glo kit (Promega) according to the manufacturer's instructions. 42 hours after NGF withdrawal, apoptotic cell death was quantified using a cell death detection ELISA kit (Roche) according to the manufacturer's instructions.

[1] = system: differentiated PC12 cells; test: Apoptotic cell death in differentiated PC12 cells after NGF withdrawal (cell death ELISA / TUNEL); format: cell-based
Protocol: as §1

[2] = system: co-cultures of dorsal root ganglion (DRG) neurons and oligodendrocytes; test: In vitro myelination in co-cultures of DRG neurons and oligodendrocytes; format: cell-based, rat
Protocol: The role of Sp35 in myelination was examined in vitro by treating co-cultures of dorsal root ganglion (DRG) neurons and oligodendrocytes with Sp35-Fc and testing for myelination by immunohistochemistry and electron microscopy. For these studies, it was necessary to first generate primary cultures of DRG neurons and of oligodendrocytes.
Female Long Evans rat E14-E17 embryonic dorsal root ganglia were cultured as described by Plant et al., J. Neurosci. 22:6083-91 (2002). Dissected DRGs were plated on poly-L-lysine-coated cover slips (100 μg/ml) for 2 weeks in the presence of fluorodeoxyuridine for days 2-6 and days 8-11 in NLA medium containing 1× B27, 100 ng/ml NGF (Invitrogen).
A2B5^+ oligodendrocytes were prepared as described in Example 1, and were harvested by trypsinization.
For coculture studies, A2B5^+ oligodendrocytes were added to DRG neuron drop cultures in the presence or absence of 10 μg/ml Sp35-Fc. The culture medium (Neurobasal medium supplemented with B27 and 100 ng/ml NGF) was changed, and fresh Sp35-Fc was added to the cells every 3 d. To identify changes in myelination, 2-week-old cultures were stained by immunohistochemical staining (“IHC”) for neurofilaments with anti-βIII-tubulin antibody to identify axons, or anti-MBP antibody to identify oligodendrocytes., and 4-week-old cultures were subjected to SDS-PAGE followed by western blot analyses to quantify the MBP. In selected examples, cells were fixed for electron microscopy studies by adding 2.5% gluteraldehyde directly onto the cover slips. Myelinated axons in the 2-week-old cultures were quantified by counting the number of myelinated internode bundles that were derived from single MBP^+ oligodendrocytes. Samples were analyzed in duplicate. Error bars denote individual determinations. P values in all studies were determined using a one-way analysis of variance.
Several peptides containing portions of the Ig domain of Sp35 were examined in vitro, by treating co-cultures of dorsal root ganglion (DRG) neurons and oligodendrocytes with Sp35 Ig peptides and testing for myelination as described in Example 5.
For co-culture studies, A2B5^+ oligodendrocytes were added to DRG neuron drop cultures in the presence or absence of 10 μg/ml Sp35-Ig-Fc (Sp35 amino acids 417-493 fused to Fc). The culture medium (Neurobasal medium supplemented with B27 and 100 ng/ml NGF) was changed, and fresh Sp35-Ig-Fc was added to the cells every 3 d. To identify changes in myelination, 2-week-old cultures were stained by immunohistochemical staining (“IHC”) for neurofilaments with anti-βIII-tubulin antibody to identify axons, or anti-MBP antibody to identify oligodendrocytes and 4-week-old cultures were subjected to SDS-PAGE followed by western blot analyses to quantify the MBP.
We performed experiments to address the relative contributions to the myelination process of Sp35 in DRG neurons as compared to oligodendrocytes. We infected DRG neurons, oligodendrocytes and co-cultures (prepared as described in Example 5) with the FL-Sp35 and DN-Sp35 lentiviral vectors described in Example 1 and performed immunohistochemical straining for myelinated MBP cells after two weeks. A 2-fold increase in MBP levels in co-cultures where both cells express DN-Sp35 and a 2-fold decrease in MBP levels in co-cultures where both cells express FL-Sp35 was observed (FIG. 10G).

B1: Sp35-Fc: extra-cellular portion of human Sp35 (residues 1-532) fused to the hinge and Fc region of human IgG1 (protein)
chain: TGCPPRCECSAQDRAVLCHRKRFVAVPEGIPTETRLLDLGKNRIKTLNQDEFASFPHLEELELNENIVSAVEPGAFNNLFNLRTLGLRSNRLKLIPLGVFTGLSNLTKLDISENKIVILLDYMFQDLYNLKSLEVGDNDLVYISHRAFSGLNSLEQLTLEKCNLTSIPTEALSHLHGLIVLRLRHLNINAIRDYSFKRLYRLKVLEISHWPYLDTMTPNCLYGLNLTSLSITHCNLTAVPYLAVRHLVYLRFLNLSYNPISTIEGSMLHELLRLQEIQLVGGQLAVVEPYAFRGLNYLRVLNVSGNQLTTLEESVFHSVGNLETLILDSNPLACDCRLLWVFRRRWRLNFNRQQPTCATPEFVQGKEFKDFPDVLLPNYFTCRRARIRDRKAQQVFVDEGHTVQFVCRADGDPPPAILWLSPRKHLVSAKSNGRLTVFPDGTLEVRYAQVQDNGTYLCIAANAGGNDSMPAHLHVRSYSPDWPHQPNKTFAFISNQPGE
modifications: left off: a dimerising Fc or GST
notes: extra-cellular portion of human Sp35 (residues 1-532) fused to the hinge and Fc region of human IgG1
B1 was tested, and the “RhoA-GTP amount versus control” value (RhoA-GTP) was “threefold reduction”, the “increase in MBP protein expression (cell staining and Western blot)” value (mature oligodendrocytes; compared to control-Fc treated cells) was “approximately 3 fold” and the “survival rate for mature oligodendrocytes (cell viability staining)” value (mature oligodendrocytes; versus control-Fc) was “significantly increased survival rate”. For the same molecule, the Caspase-3 activation (Caspase-3; 0.1 μM, 18 hours after removal of NGF) was “reduced Caspase-3 activation”, the “dose dependence of effect on Caspase-3 activation” value (Caspase-3; 0.1-10 μM, 18 hours after NGF withdrawal) was “dose-dependent” and the “effect on Caspase-3 activation compared with zVAD (0.1 μM)” value (Caspase-3; 1 or 10 μM, FIG. 14) was “as effective as a neuroprotective dose of the caspase inhibitor zVAD”. For the same molecule, the “cells undergoing apoptosis (TUNEL assay)” value ([1]; 18 hours after NGF withdrawal, FIG. 13 legend) was “fewer cells undergoing apoptosis”, the “cell death (TUNEL ELISA)” value ([1]; 42 hours after withdrawal of NGF, FIG. 13) was “significantly reduced cell death” and the “expression of MBP by western blot” value ([2]; 4-week-old treated cocultures, 10 μg/ml for Fc fusions) was “increased”. For the same molecule, the “confocal microscopy of myelination” value ([2]; Sp35-Fc treated cocultures) was “MBP had encapsulated the axons”, the “electron microscopy of myelination” value ([2]; cocultures treated 4 weeks, FIG. 10C) was “Multiple wellformed internodes” and the “effect on myelination when both cell types overexpress DN-Sp35” value ([2]; exogenously added) was “slight effects”. The “effect on myelination when either cell type overexpresses DN-Sp35 alone” value ([2]; exogenously added) was “further enhanced myelination”, the “effect on myelination in cocultures overexpressing FL-Sp35” value ([2]; exogenously added, FL-Sp35 in either or both cell types) was “reversed the inhibition of myelination” and the “axonal myelination (MBP+ myelinated axons)” value ([2]; treatment for 2 weeks, IHC, FIG. 10A) was “robust axonal myelination”.

Source: patent publication US8486893B2, “Treatment of conditions involving demyelination” (Biogen Idec MA Inc., priority 2004, dated 2013)
